The target of this experiment is PltB pentamer (B subunit of typhoid toxin, as in the crystal structure) (Salmonella enterica serovar Typhi). As to the kind of experiment: interface analysis of the crystal structure (computed).

In the case of “PltA (subunit of typhoid toxin, as in the crystal structure) (enzyme)”, the buried surface is 1660 Å^2 and the ΔiG (printed "ÅiG") was -17.7 kcal/mol.

The values above are taken from patent publication US20170021005A1.
